Source: patent publication US10239923B2, “Specific amyloid beta binding peptides and the use of same for treating and diagnosing alzheimer's dementia” (Forschungszentrum Juelich GmbH, priority 2015, dated 2019)
Square brackets hold non-standard residues; d marks the D form.

Molecular target: T1, Aβ1-42 monomers versus Aβ1-42 oligomers and fibrils (biotinylated, D-enantiomeric, immobilized) (Homo sapiens, UniProt P05067)
T1 construct: biotinylated, D-enantiomeric Aβ1-42 monomers
Assay: Monoclonal phage ELISA
Type: binding
Details: individual phage clones; species immobilized at 320 nM; absorption at 450 nm normalized with 6E10 control; higher = more monomer-specific
Text: The specificity of the peptide results from the difference in % of the absorption values for the target molecule or the bait (for example A beta monomer) and the normalized absorption values for the competitors (for example A beta oligomers and fibrils) in the monoclonal phage ELISA.
The absorption values then constitute the affinity of individual phage clones for a particular immobilized A beta species. Here, the specificity is not dependent on the strength of the affinity, but instead only on the difference of the affinities between the species. […] The terms “competitors” and “target molecule” or “bait” are defined as specified below.
A method for normalizing the obtained values should therefore be performed. From all absorption values of the individual phage clone in the monoclonal phage ELISA, the values of the phage antibodies tested for cross-reaction can be used as background. This occurs in accordance with the previously immobilized species. The signal values of the phage antibody from the reaction trays with immobilized Aβ1-42 oligomers for this purpose can be removed from the signal values of the individual phage clone from the reaction trays with immobilized Aβ1-42 oligomers. A similar process is then carried out for Aβ1-42 monomers. In this way, a possible background signal of the phage antibody can initially be calculated from the signals of the individual phage clone. […] Only in this way is an equal interpretation of the results particularly in respect of the assessment of the specificity of the individual phage clone possible (see FIG. 2).
The affinity of individual phage clones with respect to the target molecule and the competitors was examined by means of ELISA. For this purpose, all three species were immobilized in biotinylated form on a polystyrene surface at streptavidin bound thereon. Since, during the panning rounds, oligomers and fibrils were added at the same time as competitors, these two species were immobilized in the monoclonal phage ELISA, likewise mixed. […] The streptavidin-coated microtiter plates were pre-washed as specified by the manufacturer. […] For immobilization, 100 μl were used per reaction tray and were incubated for 15 minutes at room temperature. After having washed the entire plate(s) twice with 150 μl 1×TBS per reaction tray, a blocking step with 150 μl 1×TBS/0.1% (v/v) Tween-20/1% (w/v) BSA was performed for an hour at room temperature. Three washing steps with 150 μl 1×TBS/0.1% (v/v) Tween-20 then followed per reaction tray. The amplified individual phage clones were mixed 1:1 with 1× TBS/1% (w/v) BSA. The antibody 6E10 was diluted 1:10,000 in 1×TBS/0.1% (v/v) Tween-20. […] After washing five times with 150 μl 1×TBS/0.1% (v/v) Tween-20 per reaction tray, 200 μl 1×TBS/0.1% (v/v) Tween-20 were placed in each reaction tray, and the plate(s) incubated for one hour at room temperature. The solutions were removed and replaced as follows: In all reaction trays that had been incubated previously with individual phage clone dilutions or the batch without phages, 100 μl of a phage antibody diluted 1:5,000 in 1×TBS/0.1% (v/v) Tween-20 were now added. The enzyme horseradish peroxidase (HRP) was coupled to this antibody and later served for the conversion of a substrate (TMB). […] At the same time, 100 μl of a second antibody diluted 1:1,000 in 1×TBS/0.1% (v/v) Tween-20 were now added to all reaction trays that had been previously incubated with the dilution of the 6E10 antibody, said second antibody being able to identify and bind to the 6E10 antibody originating from mice. This antibody is also HRP-coupled and thus allows a quantification of the binding of the first antibody to the immobilized target molecules or the plastics surface of the reaction tray. After one hour of incubation at room temperature, the plate(s) was/were washed 10 times with 150 μl 1×TBS/0.1% (v/v) Tween-20 per reaction tray. The signal was detected by adding the substrate 3,3′,5,5′-tetramethylbenzidine (TMB). […]

T1 sequence (P05067 672-713): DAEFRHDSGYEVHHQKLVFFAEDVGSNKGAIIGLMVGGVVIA

| Sequence | Difference in signal strength between Aβ1-42 monomers (100%) and Aβ1-42 oligomers and fibrils |
| --- | --- |
| DLRFSSLWKLSH (H-[dD][dL][dR][dF][dS][dS][dL][dW][dK][dL][dS][dH]-NH2; SMILES CC(C)C[C@@H](NC(=O)[C@H](N)CC(=O)O)C(=O)N[C@H](CCCNC(=N)N)C(=O)N[C@H](Cc1ccccc1)C(=O)N[C@H](CO)C(=O)N[C@H](CO)C(=O)N[C@H](CC(C)C)C(=O)N[C@H](Cc1c[nH]c2ccccc12)C(=O)N[C@H](CCCCN)C(=O)N[C@H](CC(C)C)C(=O)N[C@H](CO)C(=O)N[C@H](Cc1c[nH]cn1)C(N)=O) [Mosd19] | 50.299% |
| DRSKGDHRITQM (H-[dD][dR][dS][dK]G[dD][dH][dR][dI][dT][dQ][dM]-NH2; SMILES CC[C@@H](C)[C@@H](NC(=O)[C@@H](CCCNC(=N)N)NC(=O)[C@@H](Cc1c[nH]cn1)NC(=O)[C@@H](CC(=O)O)NC(=O)CNC(=O)[C@@H](CCCCN)NC(=O)[C@@H](CO)NC(=O)[C@@H](CCCNC(=N)N)NC(=O)[C@H](N)CC(=O)O)C(=O)N[C@@H](C(=O)N[C@H](CCC(N)=O)C(=O)N[C@H](CCSC)C(N)=O)[C@H](C)O) [Mosd18] | 49.181% |
| DWSSRVYRDPQT (H-[dD][dW][dS][dS][dR][dV][dY][dR][dD][dP][dQ][dT]-NH2; SMILES CC(C)[C@@H](NC(=O)[C@@H](CCCNC(=N)N)NC(=O)[C@@H](CO)NC(=O)[C@@H](CO)NC(=O)[C@@H](Cc1c[nH]c2ccccc12)NC(=O)[C@H](N)CC(=O)O)C(=O)N[C@H](Cc1ccc(O)cc1)C(=O)N[C@H](CCCNC(=N)N)C(=O)N[C@H](CC(=O)O)C(=O)N1CCC[C@@H]1C(=O)N[C@H](CCC(N)=O)C(=O)N[C@@H](C(N)=O)[C@H](C)O) [Mosd16] | 52.387% |
| EHWDFGQWWQQS (H-[dE][dH][dW][dD][dF]G[dQ][dW][dW][dQ][dQ][dS]-NH2; SMILES NC(=O)CC[C@@H](NC(=O)CNC(=O)[C@@H](Cc1ccccc1)NC(=O)[C@@H](CC(=O)O)NC(=O)[C@@H](Cc1c[nH]c2ccccc12)NC(=O)[C@@H](Cc1c[nH]cn1)NC(=O)[C@H](N)CCC(=O)O)C(=O)N[C@H](Cc1c[nH]c2ccccc12)C(=O)N[C@H](Cc1c[nH]c2ccccc12)C(=O)N[C@H](CCC(N)=O)C(=O)N[C@H](CCC(N)=O)C(=O)N[C@H](CO)C(N)=O) [Mosd14] | 56.526% |
| ERSQWGHRDPQS (H-[dE][dR][dS][dQ][dW]G[dH][dR][dD][dP][dQ][dS]-NH2; SMILES N=C(N)NCCC[C@@H](NC(=O)[C@H](N)CCC(=O)O)C(=O)N[C@H](CO)C(=O)N[C@H](CCC(N)=O)C(=O)N[C@H](Cc1c[nH]c2ccccc12)C(=O)NCC(=O)N[C@H](Cc1c[nH]cn1)C(=O)N[C@H](CCCNC(=N)N)C(=O)N[C@H](CC(=O)O)C(=O)N1CCC[C@@H]1C(=O)N[C@H](CCC(N)=O)C(=O)N[C@H](CO)C(N)=O) [Mosd17] | 54.492% |
| FSHSHHTWFTWN (H-[dF][dS][dH][dS][dH][dH][dT][dW][dF][dT][dW][dN]-NH2; SMILES C[C@H](O)[C@@H](NC(=O)[C@@H](Cc1ccccc1)NC(=O)[C@@H](Cc1c[nH]c2ccccc12)NC(=O)[C@H](NC(=O)[C@@H](Cc1c[nH]cn1)NC(=O)[C@@H](Cc1c[nH]cn1)NC(=O)[C@@H](CO)NC(=O)[C@@H](Cc1c[nH]cn1)NC(=O)[C@@H](CO)NC(=O)[C@H](N)Cc1ccccc1)[C@H](C)O)C(=O)N[C@H](Cc1c[nH]c2ccccc12)C(=O)N[C@H](CC(N)=O)C(N)=O) [Mosd7] | 57.960% |
| FSWSMVMPWPTA (H-[dF][dS][dW][dS][dM][dV][dM][dP][dW][dP][dT][dA]-NH2; SMILES CSCC[C@@H](NC(=O)[C@@H](CO)NC(=O)[C@@H](Cc1c[nH]c2ccccc12)NC(=O)[C@@H](CO)NC(=O)[C@H](N)Cc1ccccc1)C(=O)N[C@@H](C(=O)N[C@H](CCSC)C(=O)N1CCC[C@@H]1C(=O)N[C@H](Cc1c[nH]c2ccccc12)C(=O)N1CCC[C@@H]1C(=O)N[C@@H](C(=O)N[C@H](C)C(N)=O)[C@H](C)O)C(C)C) [Mosd21] | 46.030% |
| GQWDFRQWWQPC (H-G[dQ][dW][dD][dF][dR][dQ][dW][dW][dQ][dP][dC]-NH2; SMILES N=C(N)NCCC[C@@H](NC(=O)[C@@H](Cc1ccccc1)NC(=O)[C@@H](CC(=O)O)NC(=O)[C@@H](Cc1c[nH]c2ccccc12)NC(=O)[C@@H](CCC(N)=O)NC(=O)CN)C(=O)N[C@H](CCC(N)=O)C(=O)N[C@H](Cc1c[nH]c2ccccc12)C(=O)N[C@H](Cc1c[nH]c2ccccc12)C(=O)N[C@H](CCC(N)=O)C(=O)N1CCC[C@@H]1C(=O)N[C@H](CS)C(N)=O) [Mosd15] | 59.985% |
| HFWSWTSLSMTR (H-[dH][dF][dW][dS][dW][dT][dS][dL][dS][dM][dT][dR]-NH2; SMILES CSCC[C@@H](NC(=O)[C@@H](CO)NC(=O)[C@@H](CC(C)C)NC(=O)[C@@H](CO)NC(=O)[C@H](NC(=O)[C@@H](Cc1c[nH]c2ccccc12)NC(=O)[C@@H](CO)NC(=O)[C@@H](Cc1c[nH]c2ccccc12)NC(=O)[C@@H](Cc1ccccc1)NC(=O)[C@H](N)Cc1c[nH]cn1)[C@H](C)O)C(=O)N[C@@H](C(=O)N[C@H](CCCNC(=N)N)C(N)=O)[C@H](C)O) [Mosd8] | 68.616% |
| HLSWYWEKYLTS (H-[dH][dL][dS][dW][dY][dW][dE][dK][dY][dL][dT][dS]-NH2; SMILES CC(C)C[C@@H](NC(=O)[C@H](N)Cc1c[nH]cn1)C(=O)N[C@H](CO)C(=O)N[C@H](Cc1c[nH]c2ccccc12)C(=O)N[C@H](Cc1ccc(O)cc1)C(=O)N[C@H](Cc1c[nH]c2ccccc12)C(=O)N[C@H](CCC(=O)O)C(=O)N[C@H](CCCCN)C(=O)N[C@H](Cc1ccc(O)cc1)C(=O)N[C@H](CC(C)C)C(=O)N[C@@H](C(=O)N[C@H](CO)C(N)=O)[C@H](C)O) [Mosd9] | 68.016% |
| HNWSWEWWYNPN (H-[dH][dN][dW][dS][dW][dE][dW][dW][dY][dN][dP][dN]-NH2; SMILES NC(=O)C[C@@H](NC(=O)[C@H]1CCCN1C(=O)[C@@H](CC(N)=O)NC(=O)[C@@H](Cc1ccc(O)cc1)NC(=O)[C@@H](Cc1c[nH]c2ccccc12)NC(=O)[C@@H](Cc1c[nH]c2ccccc12)NC(=O)[C@@H](CCC(=O)O)NC(=O)[C@@H](Cc1c[nH]c2ccccc12)NC(=O)[C@@H](CO)NC(=O)[C@@H](Cc1c[nH]c2ccccc12)NC(=O)[C@@H](CC(N)=O)NC(=O)[C@H](N)Cc1c[nH]cn1)C(N)=O) [Mosd5] | 62.729% |
| HTWTHWFSWNVP (H-[dH][dT][dW][dT][dH][dW][dF][dS][dW][dN][dV][dP]-NH2; SMILES CC(C)[C@@H](NC(=O)[C@@H](CC(N)=O)NC(=O)[C@@H](Cc1c[nH]c2ccccc12)NC(=O)[C@@H](CO)NC(=O)[C@@H](Cc1ccccc1)NC(=O)[C@@H](Cc1c[nH]c2ccccc12)NC(=O)[C@@H](Cc1c[nH]cn1)NC(=O)[C@H](NC(=O)[C@@H](Cc1c[nH]c2ccccc12)NC(=O)[C@H](NC(=O)[C@H](N)Cc1c[nH]cn1)[C@H](C)O)[C@H](C)O)C(=O)N1CCC[C@@H]1C(N)=O) [Mosd10] | 71.902% |
